B1: N-terminal GFP-tagged N-terminal truncated human SOAT1 (66-550) (domain or fragment, UniProt P35610 66-550, looked up)
chain: MKEVGSHFDDFVTNLIEKSASLDNGGCALTTFSVLEGEKNNHRAKDLRAPPEQGKIFIARRSLLDELLEVDHIRTIYHMFIALLILFILSTLVVDYIDEGRLVLEFSLLSYAFGKFPTVVWTWWIMFLSTFSVPYFLFQHWATGYSKSSHPLIRSLFHGFLFMIFQIGVLGFGPTYVVLAYTLPPASRFIIIFEQIRFVMKAHSFVRENVPRVLNSAKEKSSTVPIPTVNQYLYFLFAPTLIYRDSYPRNPTVRWGYVAMKFAQVFGCFFYVYYIFERLCAPLFRNIKQEPFSARVLVLCVFNSILPGVLILFLTFFAFLHCWLNAFAEMLRFGDRMFYKDWWNSTSYSNYYRTWNVVVHDWLYYYAYKDFLWFFSKRFKSAAMLAVFAVSAVVHEYALAVCLSFFYPVLFVLFMFFGMAFNFIVNDSRKKPIWNVLMWTSLFLGNGVLLCFYSQEWYARQHCPLKNPTFLDYVRPRSWTCRYVF
notes: human sterol O-acyltransferase 1 (SOAT1), residues 66-550 (N-terminal tetramerization domain deleted); also called hSOAT1 dimer; SOAT1-dimer (66-550); source: HEK293F, transfected, solubilized with 1% GDN (supernatant, not purified); not shown: GFP, N-terminal, kept
B2: human SOAT1 dimer construct (66-550), purified, tags removed (domain or fragment, UniProt P35610 66-550, looked up)
chain: B1 chain
notes: human sterol O-acyltransferase 1 (SOAT1), residues 66-550; residues 66-117 invisible in the map; Reconstituted into MSP2X nanodiscs; also called hSOAT1 dimer; hSOAT1 66-550; source: HEK293F, BacMam infected, purified (strep-tactin, PreScission, superose-6); not shown: His7, N-terminal, cleaved; strep, N-terminal, cleaved; GFP, N-terminal, cleaved
B3: N-terminal GFP-tagged full-length human SOAT1 (1-550) (enzyme, UniProt P35610 1-550, looked up)
chain: MVGEEKMSLRNRLSKSRENPEEDEDQRNPAKESLETPSNGRIDIKQLIAKKIKLTAEAEELKPFFMKEVGSHFDDFVTNLIEKSASLDNGGCALTTFSVLEGEKNNHRAKDLRAPPEQGKIFIARRSLLDELLEVDHIRTIYHMFIALLILFILSTLVVDYIDEGRLVLEFSLLSYAFGKFPTVVWTWWIMFLSTFSVPYFLFQHWATGYSKSSHPLIRSLFHGFLFMIFQIGVLGFGPTYVVLAYTLPPASRFIIIFEQIRFVMKAHSFVRENVPRVLNSAKEKSSTVPIPTVNQYLYFLFAPTLIYRDSYPRNPTVRWGYVAMKFAQVFGCFFYVYYIFERLCAPLFRNIKQEPFSARVLVLCVFNSILPGVLILFLTFFAFLHCWLNAFAEMLRFGDRMFYKDWWNSTSYSNYYRTWNVVVHDWLYYYAYKDFLWFFSKRFKSAAMLAVFAVSAVVHEYALAVCLSFFYPVLFVLFMFFGMAFNFIVNDSRKKPIWNVLMWTSLFLGNGVLLCFYSQEWYARQHCPLKNPTFLDYVRPRSWTCRYVF
notes: human sterol O-acyltransferase 1 (SOAT1), full-length, residues 1-550; BacMam vector with N-terminal His7-strep-GFP tags; detected by GFP fluorescence in FSEC; also called hSOAT1; sterol O-acyltransferase 1; source: solubilized in detergent micelles; not shown: GFP, N-terminal, kept
B4: human SOAT1 full-length (1-550), purified, tags removed (enzyme, UniProt P35610 1-550, looked up)
chain: B3 chain
notes: human sterol O-acyltransferase 1 (SOAT1), full-length, residues 1-550; Studied in digitonin/GDN micelles and in MSP2N2 nanodiscs with soybean polar lipids; also called hSOAT1; hSOAT1 tetramer; source: HEK293F, BacMam infected, purified (strep-tactin, PreScission, superose-6); not shown: His7, N-terminal, cleaved; strep, N-terminal, cleaved; GFP, N-terminal, cleaved

Key:
[1] = target: the molecule itself; assay: SEC; fluorescence-detection SEC (FSEC) of N-terminal GFP-tagged hSOAT1 solubilized in detergent micelles; elution compared with dimeric mouse TPC1 (189 kDa)
[2] = target: the molecule itself; assay: cryo-EM structure; hSOAT1 66-550 in nanodisc (MSP2X) with inhibitor CI-976; 3.5 Å, C2 symmetry
[3] = target: the molecule itself; assay: cryo-EM structure; hSOAT1 full length in detergent micelles with CI-976; one 3D class refined to 12 Å

Row | Protein | stoichiometry N [1] | also measured
1 | B1 | 2 | 
2 | B2 |  | stoichiometry N [2]: 2
3 | B3 | 4 | 
4 | B4 |  | stoichiometry N [3]: 4
